IntAct's records for PubMed 11739402

Key:
gors2_rat Gorasp2 = gors2_rat Gorasp2 (UniProt Q9R064)
gors1_rat Gorasp1 = gors1_rat Gorasp1 (UniProt O35254)
Chain of gors1_rat Gorasp1 (O35254 whole entry): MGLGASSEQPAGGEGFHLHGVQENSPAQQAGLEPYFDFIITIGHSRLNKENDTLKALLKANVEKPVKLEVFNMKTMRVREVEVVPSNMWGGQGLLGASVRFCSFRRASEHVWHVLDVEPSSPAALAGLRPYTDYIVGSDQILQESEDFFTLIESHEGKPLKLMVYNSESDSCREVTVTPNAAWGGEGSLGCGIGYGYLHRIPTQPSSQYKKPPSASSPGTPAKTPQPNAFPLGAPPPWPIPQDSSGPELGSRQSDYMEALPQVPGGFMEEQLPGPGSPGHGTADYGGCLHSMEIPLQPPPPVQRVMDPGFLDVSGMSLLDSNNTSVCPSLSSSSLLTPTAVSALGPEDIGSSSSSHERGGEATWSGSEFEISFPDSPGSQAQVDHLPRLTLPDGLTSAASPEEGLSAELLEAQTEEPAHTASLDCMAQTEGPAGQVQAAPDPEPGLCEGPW

Chain of Transmembrane emp24 domain-containing protein 2 (Rattus norvegicus (Rat)), Q63524 V200A;V201A (Q63524 whole entry V200A/V201A, the tested form may be a part): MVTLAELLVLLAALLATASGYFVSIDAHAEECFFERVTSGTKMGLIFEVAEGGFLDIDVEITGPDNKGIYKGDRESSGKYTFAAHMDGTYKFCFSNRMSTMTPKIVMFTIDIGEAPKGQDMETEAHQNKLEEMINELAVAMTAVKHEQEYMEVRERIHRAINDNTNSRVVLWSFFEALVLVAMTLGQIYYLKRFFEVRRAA

effect of a mutation on the interaction (gors2_rat Gorasp2): decreasing interaction
effect of a mutation on the interaction (gors1_rat Gorasp1): decreasing interaction
Substance: Transmembrane emp24 domain-containing protein 2 (Rattus norvegicus (Rat)), Q63524 V200A;V201A
